In patent publication US20250333531A1:

Biological target: human CD37 (human) (UniProt P11049)
Experiment: flow cytometry on Ramos cells (HEK293 supernatants), MFI normalised to chHH1-DOTA

Chain of human CD37 (human) (P11049 whole entry): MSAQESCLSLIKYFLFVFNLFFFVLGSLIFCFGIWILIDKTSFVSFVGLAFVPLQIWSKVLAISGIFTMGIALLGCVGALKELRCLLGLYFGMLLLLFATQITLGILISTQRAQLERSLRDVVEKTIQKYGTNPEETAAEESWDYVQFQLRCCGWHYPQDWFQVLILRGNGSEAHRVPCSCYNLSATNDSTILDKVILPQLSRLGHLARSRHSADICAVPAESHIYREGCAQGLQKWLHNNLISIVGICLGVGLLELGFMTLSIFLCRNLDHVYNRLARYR

B1: HC1 + LC1 (antibody, human IgG1, V domains shown)
VH: QVQLVQSGAEVKKPGASVKVSCKASGYSFTDYNMYWVRQAPGQRLEWMGYIDPYNGDTTYNQKFKGRVTITRDTSASTAYMELSSLRSEDTAVYYCARSPYGHYAMDYWGQGTLVTVSS
VL: DIQMTQSPSSLSASVGDRVTITCKASQDVSTAVDWYQQKPGKAPKLLIYWASTRHTGVPSRFSGSGSGTDFTLTISSLQPEDFATYYCRQHYSTPFTFGQGTKLEIK
- Normalized average binding (%): 40%
